Here are results for five molecules from patent publication US20170296640A1 (IMMATICS BIOTECHNOLOGIES, published 2017).

For this experiment, the target named is T1, HLA-A*02:01 (peptide-receptive MHC class I monomer after UV cleavage of the UV-sensitive ligand) (human).
T1 construct: MHC monomers loaded by UV-ligand exchange and captured on streptavidin plates
As to the kind of experiment: UV ligand-exchange ELISA; exchange yield grade (+ >=10%, ++ >=20%, +++ >=50%, ++++ >=75%). In a few lines: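 Exchange yield is an ELISA read-out: complexes diluted 100-fold, captured on streptavidin plates, detected with HRP anti-β2m and TMB at 450 nm. Standard curve from refolded HLA-A*02:01/MLA-001 (15-500 ng/ml); complexes made by UV-triggered displacement of a photolabile ligand by test peptide.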

B1: LLLNENESLFL (SEQ ID NO: 96) (peptide)
peptide: LLLNENESLFL
The molecule B1 came in with a peptide exchange yield of 50 to 75%.

B2: LLNFSPGNL (SEQ ID NO: 97) (peptide)
peptide: LLNFSPGNL
For the molecule B2, the peptide exchange yield lay within 10 to 20%.

B3: RLIRTIAAI (SEQ ID NO: 100) (peptide)
peptide: RLIRTIAAI
In the case of B3, the peptide exchange yield was in the range of 50 to 75%.

B4: QLYDGATALFL (SEQ ID NO: 99) (peptide)
peptide: QLYDGATALFL
B4: the peptide exchange yield lay within 20 to 50%.

B5: MLQDGIARL (SEQ ID NO: 98) (peptide)
peptide: MLQDGIARL
Consider B5, for which the peptide exchange yield fell in the range of 50 to 75%.
